Results from patent US20250320309A1 (SHENGHE CHINA BIOPHARMACEUTICAL, published 2025).

Target: T1, human CD24 (human, UniProt P25063 27-59)
T1 chain (looked up): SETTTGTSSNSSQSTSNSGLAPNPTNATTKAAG
Assay: cell-based or functional assay

Binder | ADCP: phagocytosis of CD24-SKOV3 cells by macrophages, EC50 | ADCP: phagocytosis of MCF-7 cells by macrophages, EC50
1-D2-IgG4 (bispecific antibody) heavy: not shown light: DIQMTQSPSTLSASVGDRVTITCSASSSVSSMHWYQQKPGKAPKLLIYSTSNLASGVPSRFSGSGSGTEYTLTISSLQPDDFATYYCHHWTSYMYTFGGGTKVEIKRTVAAPSVFIFPPSDEQLKSGTASVVCLLNNFYPREAKVQWKVDNALQSGNSQESVTEQDSKDSTYSLSSTLTLSKADYEKHKVYACEVTHQGLSSPVTKSFNRGECGGGGSGGGGSQVQLQESGPGLVKPSETLSLTCTVSGSSLTSYGVHWVRQPPGKCLEGLGVIWPGGSTNYNSALMSRVTISKDNSKSQVSLKMSSLTAADTAVYYCARVTGTWYFDVWGQGTTVTVSSGGGGSGGGGSGGGGSDIQMTQSPSSLSASLGDRVTISCSASQGISNYLNWYQQKPDGTVKLLIYYTSTLHSGVPSRFSGSGSGTDYTLTISSLQPEDIATYYCQQYSKLPWTFGCGTKLEIK | 4 pM | 2 pM
1-C2-IgG1 (bispecific antibody) heavy: not shown light: DIQMTQSPSTLSASVGDRVTITCSASSSVSSMHWYQQKPGKAPKLLIYSTSNLASGVPSRFSGSGSGTEYTLTISSLQPDDFATYYCHHWTSYMYTFGGGTKVEIKRTVAAPSVFIFPPSDEQLKSGTASVVCLLNNFYPREAKVQWKVDNALQSGNSQESVTEQDSKDSTYSLSSTLTLSKADYEKHKVYACEVTHQGLSSPVTKSFNRGEC | 13 pM | 4 pM
